Measured values from patent US20070141665A1.

Target: Cavβ3-I-II2.1 chimera (rat β3 subunit fused at its C-terminal end to the I-II loop of the rabbit Cavα2.1 subunit), [35S]-labelled (rat; rabbit) (UniProt P54287)
Assay: Gβγ (10 to 900 nM) displaces the intramolecular Cavβ-AID2.1 binding of [35S] Cavβ3-I-II2.1; read as binding of the chimera to GST-AID1.2 after 30 min at 30 °C, SDS-PAGE and autoradiography

Sequence of UniProt P54287 (P54287 other isoform, or with tags, fused parts or gaps mutant): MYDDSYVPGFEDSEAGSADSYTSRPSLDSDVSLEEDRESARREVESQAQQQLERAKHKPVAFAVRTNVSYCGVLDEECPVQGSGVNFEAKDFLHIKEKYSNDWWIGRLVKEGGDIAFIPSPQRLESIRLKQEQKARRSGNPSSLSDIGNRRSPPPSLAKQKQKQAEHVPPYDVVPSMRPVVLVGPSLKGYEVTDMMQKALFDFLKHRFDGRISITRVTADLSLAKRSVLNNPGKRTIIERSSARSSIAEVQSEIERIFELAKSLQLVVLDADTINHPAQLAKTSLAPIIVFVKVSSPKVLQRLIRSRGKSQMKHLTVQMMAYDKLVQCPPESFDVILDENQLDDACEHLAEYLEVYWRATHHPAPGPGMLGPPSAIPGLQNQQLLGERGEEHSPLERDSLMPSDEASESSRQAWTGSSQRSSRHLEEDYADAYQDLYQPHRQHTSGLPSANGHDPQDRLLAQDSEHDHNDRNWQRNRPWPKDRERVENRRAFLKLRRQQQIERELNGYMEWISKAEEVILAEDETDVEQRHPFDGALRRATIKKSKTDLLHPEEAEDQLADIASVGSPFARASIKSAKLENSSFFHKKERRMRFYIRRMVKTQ

Substance G-protein Gβγ complex (Calbiochem) has an IC50 of 160 nM.
